Source: patent publication US20060217308A1, “Compositions for the treatment of tumor pathologies, comprising internalin B (ln1B) of Listeria monocytogene protein or a fragment thereof” (priority 2005, published 2006)

What was measured:
[1] = test system: Met; assay: Cell surface biotinylation and internalization assay of Met; format: cell-based, human; details: HeLa cells, In1B two minutes
Description: (A) Hela cells were treated (+) with […] epoximycin, […] clasto-lactacystin-β-lactone (lactone), 20 mM ammonium chloride, or 5 μM bafilomycin A1 (Baf-A1) for 90 minutes before addition of In1B. Cell extracts were loaded in a SDS-PAGE gel followed by immunoblot with anti-Met antibody. […] (B) Surface exposed proteins of Hela cells were biotinylated (Biot +) before addition of In1B. In1B was added for two minutes to allow internalization of Met, then cells were washed and biotin was removed (see methods and text) from the surface. Samples were precipitated with neutravidin agarose and blotted against Met.
Cell surface biotinylation and internalization assay were performed as described before (35). Briefly, the cells were washed in ice-cold PBS, and incubated with 25 mg/ml EZ-link Sulfo-NHS-SS-biotin (Pierce) 15 minutes in PBS pH 8.0, and followed by one wash with serum free media containing 0.1% BSA, followed by one wash in PBS containing Ca and Mg (PBS+CaMg; Gibco). The cells were then warmed to 37° C., incubated with In1B for two minutes, and then cooled down to 4° C. The cells were washed again with PBS+CaMg, and cell-surface debiotinylation was performed by adding 100 mM MESNA in 50 mM Tris-HCl pH 8.6, 100 mM NaCl, 1 mM EDTA and 0.2% BSA (3 times, 10 minutes incubation). […]

[2] = test system: Met; assay: In1B-induced ubiquitination of Met (anti-Met immunoprecipitation, anti-ubiquitin blot) in HeLa cells; format: cell-based, human
Description: (A) Listeria monocytogenes EGD (BUG600) (MOI 25) or purified In1B (5 nM) were added (+) for two minutes to HeLa cells. Samples were immunoprecipitated against Met and blotted against ubiquitin using P4D1 monoclonal antibody. (B) In1B was added to HeLa cells for two minutes and samples were re-immunoprecipitated against Met. Samples were blotted against ubiquitin (Ub) or Met. (C) Increasing amounts of In1B were added to HeLa cells (1 to 6 corresponding to 0, 0.22, 0.44, 0.88, 1.75, […], 5 nM respectively) for two minutes. Extracts were immunoprecipitated against Met and blotted against Met or ubiquitin (Ub). (D) As C, but 1 to 6 correspond to 0, 3.5, 10, 20, 40, 80 nM In1B, respectively. (E) 5 nm of purified In1B was added to HeLa cells for the indicated times. Cell extracts were immunoprecipitated (IP) against Met and blotted (WB) against Met or ubiquitin (Ub). At the left of all panels the molecular weight markers are indicated in kDa. In C and D, 8% acrylamide gels were used, while 10% acrylamide gels were used in A, B, and E.
Cells, bacteria and growth conditions. The human cell line used was HeLa (ATCC number CCL-2) grown as recommended by ATCC. Typically, cells were serum starved for three hours before the addition of In1B. The bacterial strains used were Listeria monocytogenes BUG600 and BUG1461. They were grown in BHI medium, which in the case […] contained 5 μg/ml of erythromycin.
Assays. Immunoprecipitation, Re-immunoprecipitation, and immunoblots were performed as described before (31). In1B purification was performed as described (54).
It has been previously described that the ubiquitin ligase Cbl is recruited to the Met complex during the first minute after cell treatment with soluble In1B (31). Whether Listeria infection promotes ubiquitination of Met was studied. Epithelial HeLa cells were infected with Listeria monocytogenes (at a m.o.i. 25) or treated with purified In1B (5 nM) (FIG. 1A) for two minutes. Cellular extracts were immunoprecipitated using an antibody that recognizes Met and ubiquitination of immunoprecipitated proteins was tested with an anti-ubiquitin antibody. A clear increase in the amount of ubiquitinated proteins associated with Met was detected after infection with Listeria.
To assess whether the signal observed after In1B treatment corresponded to Met ubiquitination, a re-immunoprecipitation assay was performed. Anti-Met immunoprecipitates from cells samples treated (or not) with In1B were denatured (boiled in presence of 1% SDS), to dissociate Met complexes, and re-immunoprecipitated using anti-Met antibodies. The resulting samples were immunoblotted against ubiquitin (FIG. 1B left panel) and Met (FIG. 1B right panel). Ubiquitin was only detectable in the lane corresponding to In1B treated samples, whereas Met was present in both lanes corresponding to In1B-treated or non-treated samples.
In order to determine the minimal amount of In1B necessary to trigger Met ubiquitination, HeLa cells were treated with increasing amount of In1B for two minutes. Cell extracts were then immunoprecipitated using the anti-Met antibody and blotted with anti ubiquitin or anti Met antibodies (FIGS. 1C and 1D). 1.75 nM of In1B was sufficient to induce ubiquitination of Met. […] Note that ubiquitinated Met migrated slower and than non-ubiquitinated in 8% acrylamide SDS-PAGE gels (FIGS. 1C and 1D), in agreement with an increase in apparent molecular weight of ubiquitinated proteins. Again, Met detection was always weaker after ubiquitination, supporting the previous observation that ubiquitination of Met was leading to Met degradation.
Next, the kinetics of In1B-dependent ubiquitination of Met were tested. In1B (5 nM) was added during increasing time periods to HeLa cells and cell extracts were immunoprecipitated using anti-Met antibodies (FIG. 1E). In1B-induced ubiquitination was maximal two minutes after treatment and declined thereafter. […]

Sequence of Met (P08581 25-1390): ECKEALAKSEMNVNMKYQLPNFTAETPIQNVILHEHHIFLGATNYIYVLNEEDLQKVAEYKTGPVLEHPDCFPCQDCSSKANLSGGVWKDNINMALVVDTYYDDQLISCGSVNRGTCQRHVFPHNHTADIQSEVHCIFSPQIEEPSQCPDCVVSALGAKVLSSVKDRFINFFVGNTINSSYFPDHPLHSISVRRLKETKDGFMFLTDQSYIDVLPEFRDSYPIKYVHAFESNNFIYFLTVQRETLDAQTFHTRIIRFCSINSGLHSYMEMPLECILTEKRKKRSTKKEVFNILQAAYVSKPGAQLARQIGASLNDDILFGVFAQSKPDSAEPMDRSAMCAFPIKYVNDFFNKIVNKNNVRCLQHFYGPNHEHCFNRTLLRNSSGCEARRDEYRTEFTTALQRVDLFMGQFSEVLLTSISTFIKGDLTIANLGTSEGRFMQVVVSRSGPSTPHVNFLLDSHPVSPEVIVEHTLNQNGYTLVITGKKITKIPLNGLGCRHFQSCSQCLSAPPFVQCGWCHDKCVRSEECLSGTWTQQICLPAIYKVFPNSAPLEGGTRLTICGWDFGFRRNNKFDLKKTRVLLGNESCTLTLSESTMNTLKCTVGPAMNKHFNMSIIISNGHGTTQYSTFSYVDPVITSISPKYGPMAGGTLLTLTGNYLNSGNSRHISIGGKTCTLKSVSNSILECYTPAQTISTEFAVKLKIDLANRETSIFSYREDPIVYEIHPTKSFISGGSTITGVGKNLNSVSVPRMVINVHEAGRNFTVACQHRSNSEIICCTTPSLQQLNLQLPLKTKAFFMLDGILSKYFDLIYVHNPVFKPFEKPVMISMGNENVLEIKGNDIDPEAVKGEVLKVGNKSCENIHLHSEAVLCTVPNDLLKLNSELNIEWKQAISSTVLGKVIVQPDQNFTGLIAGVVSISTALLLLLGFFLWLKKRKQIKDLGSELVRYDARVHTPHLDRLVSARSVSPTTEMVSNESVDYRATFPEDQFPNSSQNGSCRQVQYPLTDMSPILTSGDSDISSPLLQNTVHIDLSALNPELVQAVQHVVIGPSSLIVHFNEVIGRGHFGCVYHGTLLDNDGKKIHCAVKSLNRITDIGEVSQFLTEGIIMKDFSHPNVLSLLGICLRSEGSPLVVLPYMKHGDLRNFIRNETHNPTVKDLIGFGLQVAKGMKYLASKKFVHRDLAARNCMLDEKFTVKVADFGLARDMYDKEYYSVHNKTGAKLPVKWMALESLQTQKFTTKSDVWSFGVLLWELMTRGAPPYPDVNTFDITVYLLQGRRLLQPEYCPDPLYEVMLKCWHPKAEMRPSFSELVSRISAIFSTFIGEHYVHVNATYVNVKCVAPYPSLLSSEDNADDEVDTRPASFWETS

B1: In1B: Listeria monocytogenes surface protein of the internalin family that interacts with Met; purified soluble protein (protein, UniProt P0DQD2 31-630, looked up)
Internalin B: AKVQAETITVPTPIKQIFSDDAFAETIKDNLKKKSVTDAVTQNELNSIDQIIANNSDIKSVQGIQYLPNVTKLFLNGNKLTDIKPLANLKNLGWLFLDENKVKDLSSLKDLKKLKSLSLEHNGISDINGLVHLPQLESLYLGNNKITDITVLSRLTKLDTLSLEDNQISDIVPLAGLTKLQNLYLSKNHISDLRALAGLKNLDVLELFSQECLNKPINHQSNLVVPNTVKNTDGSLVTPEIISDDGDYEKPNVKWHLPEFTNEVSFIFYQPVTIGKAKARFHGRVTQPLKEVYTVSYDVDGTVIKTKVEAGTRITAPKPPTKQGYVFKGWYTEKNGGHEWNFNTDYMSGNDFTLYAVFKAETTEKAVNLTRYVKYIRGNAGIYKLPREDNSLKQGTLASHRCKALTVDREARNGGKLWYRLKNIGWTKAENLSLDRYDKMEYDKGVTAYARVRNASGNSVWTKPYNTAGAKHVNKLSVYQGKNMRILREAKTPITTWYQFSIGGKVIGWVDTRALNTFYKQSMEKPTRLTRYVSANKAGESYYKVPVADNPVKRGTLAKYKNQKLIVDCQATIEGQLWYRIRTSSTFIGWTKAANLRAQK
**Q.** Which results are given for B1?
**A.** endocytosis of Met (protection of biotinylated Met from MESNA de-biotinylation) [1]: protected Met from de-biotinylation; time of maximal In1B-induced ubiquitination of Met ([2]; In1B 5 nM): two; time of new wave of Met ubiquitination after addition of In1B ([2]; In1B 5 nM): 30 min; time at which a new band corresponding to Met appeared after addition of In1B ([2]; In1B 5 nM, anti-Met blot of immunoprecipitates): 15 min; ubiquitination of Met after In1B treatment (re-immunoprecipitation assay) ([2]; In1B two minutes, re-immunoprecipitated anti-Met, blot anti-ubiquitin): induces the ubiquitination of Met; minimal amount of In1B necessary to trigger Met ubiquitination ([2]; increasing amount of In1B for two minutes): 1.75 nM; Met ubiquitination using higher amount of In1B ([2]; two minutes, 3.5 to 80 nM In1B (FIG. 1D)): did not significantly increase
